Article PMC7188244

Key:
[1] = biological target: HA-tagged SQSTM1-NUP214^FGmut fusion protein (human) (UniProt P35658); assay: co-IP; nuclear lysates of stably transduced MEFs; anti-HA antibody overnight at 4°C, Protein G Dynabeads; washes with 150 and 175 mM NaCl buffer; immunoblot with anti-Crm1 and anti-HA, Crm1 signal/HA signal quantified on LI-COR Odyssey; cells untreated or treated with LMB (10 nM, 2 hours)
[2] = biological target: HA-tagged SQSTM1-NUP214 fusion protein (human) (UniProt P35658); assay: as above

Row | percent reduction of Crm1 binding by LMB (10 nM, 2 hours) [1] | percent reduction of Crm1 binding against SQSTM1-NUP214 [1] | percent reduction of Crm1 binding by LMB (10 nM, 2 hours) [2] | Substance
1 | 52% |  |  | Crm1 (chromosome region maintenance 1) (from UniProt Q6P5F9 1-1071)
2 |  | > 50% | 58% | Crm1 (chromosome region maintenance 1) (from UniProt Q6P5F9 1-1071) (natural protein)
